Test [1] addresses bromodomain protein 4 (Brd4), endogenous (human (endogenous in C33A and 293T)) (UniProt O60885). Briefly: co-IP; nuclear extracts of transfected C33A or 293T cells IPed with polyclonal Brd4 antibody (NA or CA) or normal rabbit IgG, immunoblot; immuno-complexes unchanged at 300 mM NaCl, only slightly dissociated at 500 and 1000 mM. In general terms: A western blot detects proteins with antibodies after separation by electrophoresis.

Test [2] has the same target.
Test [3] shares this target. This is another data set of the same source.

On to “MCV large T antigen (LT) expressed from pADL* (natural protein)”, for which the percent of the MCV LT co-immunoprecipitated in test [1] was found to be 20%. Also, the MCV episome copy number by qPCR in 293-4T cells (stably expressing MCV LT and sT) super-transfected with the Brd4 471-730 DNI construct, 24 h to 4 days: reduction (∼60% within the first 24 h) in test [2] worked out at 94%. In test [3], this substance displayed a replication of the MCV genome (LT expressed from the viral genome) in 293T cells co-transfected with 0, 7 or 9 µg pcDNA4C-Brd4 471-730, DpnI-resistant DNA by Southern blotting at 24 h: inhibition of 92%.
Regarding “MCV large T antigen (LT), Xpress-tagged, from pcDNA4C-MCV LT (natural protein)”, the percent of the MCV LT co-immunoprecipitated in test [1] worked out at 40%.

The values above are taken from publication PMC3493480.
